{"source": "patent US20060257938A1", "about": "“Method of screening for drugs that block ligand binding to a lipid binding protein” (priority 2005, published 2006)", "molecules": {"B1": {"name": "68Y, 72A (protein, listed as Rattus norvegicus)", "chain": "AFDGTWKVDRNENYEKFMEKMGINVVKRKLGAHDNLKLTITQEGNKFTVKESSNFRNIDVVFELGVDYAYSAADGTELTGTWTMEGNKLVGKFKRVDNGKELIAVREISGNELIQTYTYEGVEAKRIFKKE", "modifications": "PEPTIDE (1)...(131) wild-type rat intestinal fatty acid binding protein"}, "B2": {"name": "70C, 72A (protein, listed as Rattus norvegicus)", "chain": "B1 chain with Y68F, Y70C", "modifications": "PEPTIDE (1)...(131) wild-type rat intestinal fatty acid binding protein"}, "B3": {"name": "70M, 72A (protein, listed as Rattus norvegicus)", "chain": "B1 chain with Y68F, Y70M", "modifications": "PEPTIDE (1)...(131) wild-type rat intestinal fatty acid binding protein"}, "B4": {"name": "72C (protein, listed as Rattus norvegicus)", "chain": "B1 chain with Y68F, A72C", "modifications": "PEPTIDE (1)...(131) wild-type rat intestinal fatty acid binding protein"}, "B5": {"name": "72D (protein, listed as Rattus norvegicus)", "chain": "B1 chain with Y68F, A72D", "modifications": "PEPTIDE (1)...(131) wild-type rat intestinal fatty acid binding protein"}, "B6": {"name": "72E (protein, listed as Rattus norvegicus)", "chain": "B1 chain with Y68F, A72E", "modifications": "PEPTIDE (1)...(131) wild-type rat intestinal fatty acid binding protein"}, "B7": {"name": "72G (protein, listed as Rattus norvegicus)", "chain": "B1 chain with Y68F, A72G", "modifications": "PEPTIDE (1)...(131) wild-type rat intestinal fatty acid binding protein"}, "B8": {"name": "72K (protein, listed as Rattus norvegicus)", "chain": "B1 chain with Y68F, A72K", "modifications": "PEPTIDE (1)...(131) wild-type rat intestinal fatty acid binding protein"}, "B9": {"name": "72M (protein, listed as Rattus norvegicus)", "chain": "B1 chain with Y68F, A72M", "modifications": "PEPTIDE (1)...(131) wild-type rat intestinal fatty acid binding protein"}, "B10": {"name": "72N (protein, listed as Rattus norvegicus)", "chain": "B1 chain with Y68F, A72N", "modifications": "PEPTIDE (1)...(131) wild-type rat intestinal fatty acid binding protein"}, "B11": {"name": "72Q (protein, listed as Rattus norvegicus)", "chain": "B1 chain with Y68F, A72Q", "modifications": "PEPTIDE (1)...(131) wild-type rat intestinal fatty acid binding protein"}, "B12": {"name": "72R (protein, listed as Rattus norvegicus)", "chain": "B1 chain with Y68F, A72R", "modifications": "PEPTIDE (1)...(131) wild-type rat intestinal fatty acid binding protein"}, "B13": {"name": "72S (protein, listed as Rattus norvegicus)", "chain": "B1 chain with Y68F, A72S", "modifications": "PEPTIDE (1)...(131) wild-type rat intestinal fatty acid binding protein"}, "B14": {"name": "72V (protein, listed as Rattus norvegicus)", "chain": "B1 chain with Y68F, A72V", "modifications": "PEPTIDE (1)...(131) wild-type rat intestinal fatty acid binding protein"}, "B15": {"name": "72Y (protein, listed as Rattus norvegicus)", "chain": "B1 chain with Y68F, A72Y", "modifications": "PEPTIDE (1)...(131) wild-type rat intestinal fatty acid binding protein"}, "B16": {"name": "104D1, 72A (protein, listed as Rattus norvegicus)", "chain": "B1 chain with Y68F, A104D", "modifications": "PEPTIDE (1)...(131) wild-type rat intestinal fatty acid binding protein"}, "B17": {"name": "104F1, 72A (protein, listed as Rattus norvegicus)", "chain": "B1 chain with Y68F, A104F", "modifications": "PEPTIDE (1)...(131) wild-type rat intestinal fatty acid binding protein"}}, "note": "Where a chain is given by its changes, count along the chain named. Several values for one entry are separate records, joined by “and”; a condition that tells them apart may be missing. Identical values can stand only once.", "data": [{"assay": "Probe fluorescence ratio response to arachidonic acid relative to ADIFAB2", "assay_type": "binding", "conditions": "Arachidonic acid; response relative to ADIFAB2", "summary_of_the_method": "(§1)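 Each fatty acid's response was expressed relative to ADIFAB2, the rI-FABP-L72A probe, as ΔR/ΔRreference. ΔR is the change in the background-corrected two-wavelength intensity ratio R=Fλ1/Fλ2 from its analyte-free baseline R0. Emission was read near about 420-480 nm for unbound and about 495-580 nm for FFA-bound probe.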", "values": [{"molecule": "B1", "DR/DR AA": 0.42}, {"molecule": "B2", "DR/DR AA": 0.23}, {"molecule": "B3", "DR/DR AA": 0.34}, {"molecule": "B4", "DR/DR AA": 0.14}, {"molecule": "B5", "DR/DR AA": 0.27}, {"molecule": "B6", "DR/DR AA": 0.27}, {"molecule": "B7", "DR/DR AA": 0.62}, {"molecule": "B8", "DR/DR AA": 0.26}, {"molecule": "B9", "DR/DR AA": 1.31}, {"molecule": "B10", "DR/DR AA": 0.65}, {"molecule": "B11", "DR/DR AA": 0.77}, {"molecule": "B12", "DR/DR AA": 0.45}, {"molecule": "B13", "DR/DR AA": 0.65}, {"molecule": "B14", "DR/DR AA": 0.18}, {"molecule": "B15", "DR/DR AA": 0.35}]}, {"assay": "Probe fluorescence ratio response to arachidonic acid relative to ADIFAB2", "assay_type": "binding", "conditions": "arachidonic acid; response relative to ADIFAB2", "summary_of_the_method": "as §1", "values": [{"molecule": "B16", "DR/DR AA": 0.48}, {"molecule": "B7", "DR/DR AA": 0.871}, {"molecule": "B17", "DR/DR AA": 0.66}, {"molecule": "B10", "DR/DR AA": 0.652}, {"molecule": "B11", "DR/DR AA": 0.770}, {"molecule": "B15", "DR/DR AA": 0.346}]}, {"assay": "Probe fluorescence ratio response to linolenic acid relative to ADIFAB2", "assay_type": "binding", "conditions": "response relative to ADIFAB2", "summary_of_the_method": "as §1", "values": [{"molecule": "B16", "DR/DR LNA": 0.67}, {"molecule": "B1", "DR/DR LNA": 0.41}, {"molecule": "B2", "DR/DR LNA": 0.24}, {"molecule": "B3", "DR/DR LNA": 0.53}, {"molecule": "B4", "DR/DR LNA": 0.17}, {"molecule": "B5", "DR/DR LNA": 0.41}, {"molecule": "B6", "DR/DR LNA": 0.36}, {"molecule": "B7", "DR/DR LNA": "0.48 and 0.590"}, {"molecule": "B8", "DR/DR LNA": 0.31}, {"molecule": "B9", "DR/DR LNA": 1.35}, {"molecule": "B17", "DR/DR LNA": 0.42}, {"molecule": "B10", "DR/DR LNA": "0.70 and 0.702"}, {"molecule": "B11", "DR/DR LNA": "0.73 and 0.735"}, {"molecule": "B12", "DR/DR LNA": 0.49}, {"molecule": "B13", "DR/DR LNA": 0.71}, {"molecule": "B14", "DR/DR LNA": 0.15}, {"molecule": "B15", "DR/DR LNA": "0.59 and 0.594"}]}, {"assay": "Probe fluorescence ratio response to linoleic acid relative to ADIFAB2", "assay_type": "binding", "conditions": "response relative to ADIFAB2", "summary_of_the_method": "as §1", "values": [{"molecule": "B16", "DR/DR LA": 0.71}, {"molecule": "B1", "DR/DR LA": 0.36}, {"molecule": "B2", "DR/DR LA": 0.27}, {"molecule": "B3", "DR/DR LA": 0.39}, {"molecule": "B4", "DR/DR LA": 0.25}, {"molecule": "B5", "DR/DR LA": 0.37}, {"molecule": "B6", "DR/DR LA": 0.38}, {"molecule": "B7", "DR/DR LA": "0.48 and 0.544"}, {"molecule": "B8", "DR/DR LA": 0.26}, {"molecule": "B9", "DR/DR LA": 1.46}, {"molecule": "B17", "DR/DR LA": 0.47}, {"molecule": "B10", "DR/DR LA": 0.77}, {"molecule": "B11", "DR/DR LA": "0.76 and 0.762"}, {"molecule": "B12", "DR/DR LA": 0.51}, {"molecule": "B13", "DR/DR LA": 0.73}, {"molecule": "B14", "DR/DR LA": 0.21}, {"molecule": "B15", "DR/DR LA": "0.64 and 0.637"}]}, {"assay": "Probe fluorescence ratio response to oleic acid relative to ADIFAB2", "assay_type": "binding", "conditions": "response relative to ADIFAB2", "summary_of_the_method": "as §1", "values": [{"molecule": "B16", "DR/DR OA": 0.64}, {"molecule": "B1", "DR/DR OA": 0.46}, {"molecule": "B2", "DR/DR OA": 0.24}, {"molecule": "B3", "DR/DR OA": 0.42}, {"molecule": "B4", "DR/DR OA": 0.20}, {"molecule": "B5", "DR/DR OA": 0.28}, {"molecule": "B6", "DR/DR OA": 0.34}, {"molecule": "B7", "DR/DR OA": "0.52 and 0.628"}, {"molecule": "B8", "DR/DR OA": 0.19}, {"molecule": "B9", "DR/DR OA": 1.49}, {"molecule": "B17", "DR/DR OA": 0.45}, {"molecule": "B10", "DR/DR OA": "0.83 and 0.831"}, {"molecule": "B11", "DR/DR OA": "0.78 and 0.777"}, {"molecule": "B12", "DR/DR OA": 0.45}, {"molecule": "B13", "DR/DR OA": 0.62}, {"molecule": "B14", "DR/DR OA": 0.20}, {"molecule": "B15", "DR/DR OA": "0.56 and 0.557"}]}, {"assay": "Probe fluorescence ratio response to palmitic acid relative to ADIFAB2", "assay_type": "binding", "conditions": "response relative to ADIFAB2", "summary_of_the_method": "as §1", "values": [{"molecule": "B16", "DR/DR PA": 0.34}, {"molecule": "B1", "DR/DR PA": 0.35}, {"molecule": "B2", "DR/DR PA": 0.14}, {"molecule": "B3", "DR/DR PA": 0.26}, {"molecule": "B4", "DR/DR PA": 0.12}, {"molecule": "B5", "DR/DR PA": 0.24}, {"molecule": "B6", "DR/DR PA": 0.19}, {"molecule": "B7", "DR/DR PA": "0.26 and 0.307"}, {"molecule": "B8", "DR/DR PA": 0.13}, {"molecule": "B9", "DR/DR PA": 1.32}, {"molecule": "B17", "DR/DR PA": 0.27}, {"molecule": "B10", "DR/DR PA": "0.44 and 0.441"}, {"molecule": "B11", "DR/DR PA": "0.99 and 0.989"}, {"molecule": "B12", "DR/DR PA": 0.26}, {"molecule": "B13", "DR/DR PA": 0.68}, {"molecule": "B14", "DR/DR PA": 0.16}, {"molecule": "B15", "DR/DR PA": "0.41 and 0.415"}]}]}
